The source of these data is patent US5508261.

For assay [1], the target named is rat luteal ovarian LH receptors (rat) (UniProt P16235). Description: inhibition of 125I-hCG binding to rat luteal ovarian LH receptors.
The target of assay [2] is bovine testes FSH receptors (bovine) (UniProt P35376). Nature of the assay: inhibition of 125I-hFSH binding to bovine testes FSH receptors.

For the substance eCG (ligand), the activity relative to hCG (LH RECEPTORS; ratio of concentrations for 50% inhibition) (relative to recombinant hCG) in assay [1] was 0.53. Further, the activity relative to hFSH (FSH RECEPTORS; ratio of concentrations for 50% inhibition) (relative to recombinant hFSH) in assay [2] was found to be 0.18.
